Experimental data published in paper PMC11167000 (2024).
No end group written: not given here.

Assays:
[1] = molecular target: T1, human BMP7 (human, UniProt P18075 293-431); experiment: SPR; 2 mM EDTA; replicate 1
T1 chain: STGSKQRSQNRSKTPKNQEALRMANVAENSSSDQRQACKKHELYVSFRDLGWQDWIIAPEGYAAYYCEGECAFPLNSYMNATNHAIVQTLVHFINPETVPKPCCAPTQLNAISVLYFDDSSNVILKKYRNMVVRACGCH

[2] = molecular target: T2, human BMP2 (human, UniProt P12643 283-396); experiment: SPR; 2 mM EDTA; replicate 1
T2 chain: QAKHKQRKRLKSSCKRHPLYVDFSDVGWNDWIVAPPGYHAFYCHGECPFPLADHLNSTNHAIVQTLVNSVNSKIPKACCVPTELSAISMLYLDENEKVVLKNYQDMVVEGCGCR

[3] = molecular target: T3, human Growth Differentiation Factor 5 (GDF5, A382–R501) (human, UniProt P43026 382-501); experiment: SPR; 2 mM EDTA; replicate 1
T3 chain: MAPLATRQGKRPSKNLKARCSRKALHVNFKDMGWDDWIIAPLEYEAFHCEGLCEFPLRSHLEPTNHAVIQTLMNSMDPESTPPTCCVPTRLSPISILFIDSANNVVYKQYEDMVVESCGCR

[4] = molecular target: T1, human BMP7; experiment: SPR; 2 mM CaCl2; replicate 2
[5] = molecular target: T2, human BMP2; experiment: SPR; 2 mM CaCl2; replicate 2
[6] = molecular target: T3, human Growth Differentiation Factor 5 …; experiment: SPR; 2 mM CaCl2; replicate 2
[7] = molecular target: T1, human BMP7; experiment: SPR; 2 mM CaCl2; replicate 1
[8] = molecular target: T2, human BMP2; experiment: SPR; 2 mM CaCl2; replicate 1
[9] = molecular target: T3, human Growth Differentiation Factor 5 …; experiment: SPR; 2 mM CaCl2; replicate 1
[10] = molecular target: T1, human BMP7; experiment: SPR; 2 mM EDTA; replicate 2
[11] = molecular target: T2, human BMP2; experiment: SPR; 2 mM EDTA; replicate 2
[12] = molecular target: T3, human Growth Differentiation Factor 5 …; experiment: SPR; 2 mM EDTA; replicate 2
[13] = molecular target: T1, human BMP7; experiment: SPR; Ca; replicate 1
[14] = molecular target: T2, human BMP2; experiment: SPR; Ca; replicate 1
[15] = molecular target: T1, human BMP7; experiment: SPR; Ca; replicate 2
[16] = molecular target: T3, human Growth Differentiation Factor 5 …; experiment: SPR; Ca; replicate 2
[17] = molecular target: T3, human Growth Differentiation Factor 5 …; experiment: SPR; Ca; replicate 1
[18] = molecular target: T2, human BMP2; experiment: SPR; Ca; replicate 2

B1: BMPR1B (receptor)
chain: KKEDGESTAPTPRPKVLRCKCHHHCPEDSVNNICSTDGYCFTMIEEDDSGLPVVTSGCLGLEGSDFQCRDTPIPHQRRSIECCTERNECNKDLHPTLPPLKNRDFVDGPIHHR
Kd [1]: 13.5 µM | Kd [2]: 8.14 µM | Kd [3]: 4.72 µM | Kd [4]: 5.74 µM | Kd [5]: 1.65 µM | Kd [6]: 2.84 µM | Kd [7]: 2.94 µM | Kd [8]: 2.12 µM | Kd [9]: 4.55 µM | Kd [10]: 12.8 µM | Kd [11]: 9.54 µM | Kd [12]: 4.01 µM

B2: TWSG1 NTD Asp34Ala (protein)
chain: CNKALCASAVSKCLIQELCQCRPGEGNCSCCKECMLCLGALWDECCDCVGMCNPRNYS
modifications: disulfide (positions not given here); also: 7 disulfides in NTD, pairing not given here
Kd [13]: 0.247 µM | Kd [14]: 0.943 µM | Kd [15]: 0.557 µM | Kd [16]: 0.0606 µM | Kd [17]: 0.121 µM | Kd [18]: 0.771 µM
